Measured values from publication PMC5692602.

Target: ^15N-labeled intersectin 1-SH3A domain (UniProt Q15811)
Assay: NMR titration

Sequence of UniProt Q15811 (Q15811 740-806): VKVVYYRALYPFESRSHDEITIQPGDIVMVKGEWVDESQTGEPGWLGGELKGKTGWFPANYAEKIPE

| Kd | Substance |
| --- | --- |
| 793 µM | SH3A–B interdomain linker-derived peptide of intersectin 1, T832 and T839 phosphorylated |
| 275 µM | SH3A–B interdomain linker-derived peptide of intersectin 1, dephosphorylated |
